Measured values from PMC4526739.

Assays:
Experiment in all cases: EMSA
[1] = molecular target: Nab2;Tbp;Brf1;Bdp1 (Saccharomyces cerevisiae;Saccharomyces …, UniProt P32505;P13393;P29056;P46678 1-525;1-240;1-596;1-594, |||)
[2] = molecular target: T1, Nab2;Tbp;Brf1 (Saccharomyces cerevisiae;Saccharomyces …, UniProt P32505;P13393;P29056 1-525;1-240;1-596, ||)
T1 sequence 1: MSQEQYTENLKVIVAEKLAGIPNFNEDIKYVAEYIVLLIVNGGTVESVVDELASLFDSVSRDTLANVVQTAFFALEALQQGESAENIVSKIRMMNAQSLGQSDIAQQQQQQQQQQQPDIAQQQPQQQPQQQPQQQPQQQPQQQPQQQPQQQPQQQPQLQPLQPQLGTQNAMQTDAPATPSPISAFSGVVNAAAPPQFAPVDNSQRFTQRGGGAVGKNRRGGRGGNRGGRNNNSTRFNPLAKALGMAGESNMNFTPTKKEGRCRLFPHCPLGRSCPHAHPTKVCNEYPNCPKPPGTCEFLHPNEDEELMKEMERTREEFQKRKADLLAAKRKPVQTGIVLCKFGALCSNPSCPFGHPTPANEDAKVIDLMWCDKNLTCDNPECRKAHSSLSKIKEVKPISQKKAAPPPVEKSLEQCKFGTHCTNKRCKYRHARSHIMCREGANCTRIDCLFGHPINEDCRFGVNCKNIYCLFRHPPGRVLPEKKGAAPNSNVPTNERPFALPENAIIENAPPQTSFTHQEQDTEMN
T1 sequence 2: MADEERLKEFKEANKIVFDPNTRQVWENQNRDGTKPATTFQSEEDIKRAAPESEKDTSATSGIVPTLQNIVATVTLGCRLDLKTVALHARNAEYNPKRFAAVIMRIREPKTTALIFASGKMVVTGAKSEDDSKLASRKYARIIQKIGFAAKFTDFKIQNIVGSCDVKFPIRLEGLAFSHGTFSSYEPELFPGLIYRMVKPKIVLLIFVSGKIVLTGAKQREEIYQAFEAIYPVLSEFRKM
T1 sequence 3: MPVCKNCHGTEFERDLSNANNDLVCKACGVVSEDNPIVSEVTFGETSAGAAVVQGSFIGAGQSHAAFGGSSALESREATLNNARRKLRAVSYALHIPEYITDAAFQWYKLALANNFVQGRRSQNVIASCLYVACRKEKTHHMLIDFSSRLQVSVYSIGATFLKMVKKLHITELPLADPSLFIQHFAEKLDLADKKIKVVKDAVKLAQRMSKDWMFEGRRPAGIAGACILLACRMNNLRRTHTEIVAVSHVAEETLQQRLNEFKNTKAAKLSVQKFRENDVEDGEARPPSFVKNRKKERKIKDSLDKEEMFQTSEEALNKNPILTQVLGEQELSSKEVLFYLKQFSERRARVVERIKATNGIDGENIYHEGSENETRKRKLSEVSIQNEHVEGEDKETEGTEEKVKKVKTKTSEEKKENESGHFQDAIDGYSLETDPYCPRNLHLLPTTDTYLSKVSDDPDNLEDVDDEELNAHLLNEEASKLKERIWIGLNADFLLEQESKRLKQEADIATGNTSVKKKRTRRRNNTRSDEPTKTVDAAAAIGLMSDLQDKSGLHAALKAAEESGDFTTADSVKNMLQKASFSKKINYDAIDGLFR

[3] = molecular target: T2, Nab2;Tbp (Saccharomyces cerevisiae;Saccharomyces …, UniProt P32505;P13393 1-525;1-240, |)
T2 sequence 1: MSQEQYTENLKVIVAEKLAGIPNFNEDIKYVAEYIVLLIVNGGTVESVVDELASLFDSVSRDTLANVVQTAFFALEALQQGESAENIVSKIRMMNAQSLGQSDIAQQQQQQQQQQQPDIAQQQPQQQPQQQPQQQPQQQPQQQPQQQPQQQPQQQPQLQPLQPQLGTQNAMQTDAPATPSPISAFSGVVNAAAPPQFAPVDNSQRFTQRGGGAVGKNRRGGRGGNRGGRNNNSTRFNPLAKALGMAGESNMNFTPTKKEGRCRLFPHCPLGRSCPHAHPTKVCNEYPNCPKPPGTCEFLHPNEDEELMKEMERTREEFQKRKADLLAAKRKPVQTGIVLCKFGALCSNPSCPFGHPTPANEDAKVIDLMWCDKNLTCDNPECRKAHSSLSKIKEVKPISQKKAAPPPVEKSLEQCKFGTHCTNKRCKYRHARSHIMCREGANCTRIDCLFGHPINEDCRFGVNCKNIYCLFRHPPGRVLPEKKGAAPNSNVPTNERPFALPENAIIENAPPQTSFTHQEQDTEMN
T2 sequence 2: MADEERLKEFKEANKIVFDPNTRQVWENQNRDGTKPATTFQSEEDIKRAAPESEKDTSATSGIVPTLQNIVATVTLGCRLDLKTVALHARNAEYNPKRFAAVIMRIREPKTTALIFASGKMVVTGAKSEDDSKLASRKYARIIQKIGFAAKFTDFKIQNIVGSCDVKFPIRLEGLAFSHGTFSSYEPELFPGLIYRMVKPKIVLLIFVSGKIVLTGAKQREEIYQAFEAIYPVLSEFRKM

Measured: binding result

Sequence of Nab2;Tbp;Brf1;Bdp1 (P46678 whole entry, one chain of several): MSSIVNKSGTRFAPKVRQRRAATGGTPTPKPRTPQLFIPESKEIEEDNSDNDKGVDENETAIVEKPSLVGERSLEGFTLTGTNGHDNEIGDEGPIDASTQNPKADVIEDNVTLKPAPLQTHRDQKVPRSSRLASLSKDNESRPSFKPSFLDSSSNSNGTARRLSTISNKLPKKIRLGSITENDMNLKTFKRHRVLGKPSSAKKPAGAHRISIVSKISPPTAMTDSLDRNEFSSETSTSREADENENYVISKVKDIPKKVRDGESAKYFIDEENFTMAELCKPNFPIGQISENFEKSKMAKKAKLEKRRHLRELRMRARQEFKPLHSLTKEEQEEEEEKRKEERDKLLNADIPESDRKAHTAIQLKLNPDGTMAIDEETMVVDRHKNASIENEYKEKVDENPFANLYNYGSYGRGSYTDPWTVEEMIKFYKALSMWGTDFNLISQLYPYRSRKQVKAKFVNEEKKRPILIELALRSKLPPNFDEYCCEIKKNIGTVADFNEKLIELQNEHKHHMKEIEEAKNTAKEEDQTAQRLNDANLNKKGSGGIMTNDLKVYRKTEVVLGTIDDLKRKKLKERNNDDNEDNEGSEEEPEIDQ

B1: TA-30-B6 (dsDNA)
DNA 1: GCTGAAATCTCTTTTTCAATTGCTCCGGTGTATAAAGCCGCGGTCCCTTACTCTTTCTTCAACAATTAAATACTC
DNA 2: GAGTATTTAATTGTTGAAGAAAGAGTAAGGGACCGCCCCTTTATTGACCGGAGCAATTGAAAAAGAGATTTCAGC
binds: all assays above
